Among the data in US20210371867A1 (SYSMEX, published 2021) are Counts (PC, R3 reagent stored and S/N values, retold here.

For experiment [1], the target named is human IgG antibody (human). The experiment in a line: sandwich chemiluminescence immunoassay on magnetic particles (HISCL-800); capture biotin-labeled mouse anti-human IgG semi-IgG; binder as detection antibody, 0.052 U/mL.
Experiment [2] deals with human IgG antibody (human). Briefly: sandwich chemiluminescence immunoassay (HISCL-800); detection reagent stored at 40° C. for 1 week.
For experiment [3], the target named is human IgG antibody (human). The experiment in a line: sandwich chemiluminescence immunoassay (HISCL-800); PC counts over NC counts, R3 reagent stored at 4° C.
Experiment [4] addresses human IgG antibody (human). Briefly: sandwich chemiluminescence immunoassay on magnetic particles (HISCL-800); capture biotin-labeled mouse anti-human IgG semi-IgG; binder as detection antibody, 0.055 U/mL.

B1: ALP fusion antibody of Example 2 (EK1): Fab of mouse anti-human IgG antibody, Fd-EK1-BIAPII (Fab, part only; not given: Fd and light chain of anti-IgG Fab, part only)
heavy, part: EAAAKLIPAEEENPAFWNRQAAQALDVAKKLQPIQTAAKNVILFLGDGMGVPTVTATRILKGQMNGKLGPETPLAMDQFPYVALSKTYNVDRQVPDSAGTATAYLCGVKGNYRTIGVSAAARYNQCNTTRGNEVTSVINRAKKAGKAVGVVTTTRVQHASPAGAYAHTVNRNWYSDADLPADAQKNGCQDIAAQLVYNMDIDVILGGGRMYMFPEGTPDPEYPDDASVNGVRKDKQNLVQEWQAKHQGAQYVWNRTALLQAADDSSVTHLMGLFEPADMKYNVQQDHTKDPTLAEMTEAALQVLSRNPRGFYLFVEGGRIDHGHHDGKAYMALTEAIMFDNAIAKANELTSELDTLILVTADHSHVFSFGGYTLRGTSIFGLAPGKALDSKSYTSILYGNGPGYALGGGSRPDVNGSTSEEPSYRQQAAVPLASETHGGEDVAVFARGPQAHLVHGVQEETFVAHIMAFAGCVEPYTDCNLPAPA
On to B1, for which the Counts (PC, R3 reagent stored at 4° C.) in experiment [1] is 463000 counts. The molecule further returned a Counts (PC, R3 reagent stored at 40° C., 1 week) in experiment [2] of 421000 counts. Further, in experiment [3], the S/N came to 927.

B2: ALP fusion antibody of Example 2 (EK3): Fab of mouse anti-human IgG antibody, Fd-EK3-BIAPII (Fab, part only; not given: Fd and light chain of anti-IgG Fab, part only)
heavy, part: EAAAKEAAAKEAAAKLIPAEEENPAFWNRQAAQALDVAKKLQPIQTAAKNVILFLGDGMGVPTVTATRILKGQMNGKLGPETPLAMDQFPYVALSKTYNVDRQVPDSAGTATAYLCGVKGNYRTIGVSAAARYNQCNTTRGNEVTSVINRAKKAGKAVGVVTTTRVQHASPAGAYAHTVNRNWYSDADLPADAQKNGCQDIAAQLVYNMDIDVILGGGRMYMFPEGTPDPEYPDDASVNGVRKDKQNLVQEWQAKHQGAQYVWNRTALLQAADDSSVTHLMGLFEPADMKYNVQQDHTKDPTLAEMTEAALQVLSRNPRGFYLFVEGGRIDHGHHDGKAYMALTEAIMFDNAIAKANELTSELDTLILVTADHSHVFSFGGYTLRGTSIFGLAPGKALDSKSYTSILYGNGPGYALGGGSRPDVNGSTSEEPSYRQQAAVPLASETHGGEDVAVFARGPQAHLVHGVQEETFVAHIMAFAGCVEPYTDCNLPAPA
With B2, the Counts (PC, R3 reagent stored at 4° C.) in experiment [4] came out at 465000 counts. The molecule further showed a Counts (PC, R3 reagent stored at 40° C., 1 week) in experiment [2] of 436000 counts. The S/N in experiment [3] turned out to be 665.
